Results: patent US20070134256A1 (US Dept. of Health and Human Services, published 2007)
Changes are numbered by the printed parent chain. Where two headings read alike, the source gives them in different places.

T1: Langat virus (LGTV) strain TP 21 (Langat virus, UniProt P29837 281-776)
T1 sequence: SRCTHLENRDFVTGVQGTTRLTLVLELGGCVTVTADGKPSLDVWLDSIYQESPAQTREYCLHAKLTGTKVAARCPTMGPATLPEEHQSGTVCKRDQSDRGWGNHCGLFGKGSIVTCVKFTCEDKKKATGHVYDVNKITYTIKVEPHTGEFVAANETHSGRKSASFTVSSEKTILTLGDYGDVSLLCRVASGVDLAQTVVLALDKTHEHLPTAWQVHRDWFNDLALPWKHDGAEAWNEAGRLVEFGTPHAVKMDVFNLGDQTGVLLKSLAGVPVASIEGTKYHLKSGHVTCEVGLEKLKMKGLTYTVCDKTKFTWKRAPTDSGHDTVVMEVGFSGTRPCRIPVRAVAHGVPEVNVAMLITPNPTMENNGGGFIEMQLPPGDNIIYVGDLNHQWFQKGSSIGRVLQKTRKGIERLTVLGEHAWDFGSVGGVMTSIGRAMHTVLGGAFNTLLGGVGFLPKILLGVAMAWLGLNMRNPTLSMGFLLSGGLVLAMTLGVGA

B1: chimpanzee Fab 3C1 (Fab, V domains shown)
VH: EVQLLESGAEVKKPGGSVKVSCKVSGGTLSSYGISWVRQAPGQGPEWMGVIIPIRGTANYAQKFQGRVTYTADESTSTVYMELSSLRSEDTAVYYCATGRRGRYPTGSFDYWGQGALVTVSS
VL: ELQMTQSPSTLSASVGDRVTVTCRASEDLNKWLAWYQQKPGKAPKLLIYKASSLESGVPSRFSGSGSGTEFTLTISSLQPDDFATYYCQQYQSYPYTFGPGTKLEIKR
B2: chimpanzee Fab 7G4 (Fab, V domains shown)
VH: EVQLLESGGGLVQPGGSLTLSCAASGFTFSSYWMHWVRQAPGKGPEWVALIKKDGSEKYYAESVKGRFTISRDNAKNSLYLQMNSLRAEDTAVYYCTRRITTLTVISDAFDIWGQGTMVTVSS
VL: ELTQSPSTLSASVGDRVTITCRASQGISSWLAWYQQKPGKAPKFLIYKASSLESGVPSRFSGSGSGTEFTLTISSLQPDDFATYYCQQYGSYPLTFGPGTKVDIKR
B3: chimpanzee Fab 2H7 (Fab, V domains shown)
VH: EVQLLESGGGLVQPGGSRRLSCAASGFTISDNVMHWVRQAPGKGLEWVALIYSADSTHYADSVKGRFTISRDNSKNTLYLQMDGLRPEDTAVYYCAREYCTGGTCFAHFDYWGQGTLVTVSS
VL: ELQMTQSPSSLSASVGDRVTITCRASQSITNYLSWYQQKPGKAPKLLISYSSTLQSGVPSRFSGSGSGTDFTLTISSLQPEDFATYYCHYGYGTHTFGPGTKVDIKR
B4: humanized IgG1 1A5 (antibody, V domains shown)
VH: B3 VH with S56T, G84S, G103D, T119S
VL: ELQMTQSPSSVSASVGDTVTIACRASQSITNYLSWYQQKPGKAPKLLIYHASTLQSGIPSRFSGSGSGTDFTLTISSLQPDDFATYYCHYGYGTHTFGQGTKLEIKR
B5: chimpanzee Fab 3A2 (Fab, V domains shown)
VH: B3 VH with E1V, V2Q, Q3L, L5E, E6Q, A24V, S56T, G84S
VL: ELTQSPSSVSASVGDTVTIACRASQSITNYLSWYQQKPGKAPKLLIYHASTLQSGIPSRFSGSGSGTDFTLTISSLQPDDFATYYCHYGYGTHTFGQGTKLEIKR
B6: chimpanzee Fab 1B2 (Fab, V domains shown)
VH: EVQLLESGPGLVKPSQTLSLTCAVSGGSITSDHYFWSWMRQAPGRGLEWIGYISYRGTTYYNPSLKSRVTMSVTAAKNTLYLQMDGLRPEDTAVYYCARASVTAGMPAAGTLDHWGQGTLVTVSS
VL: ELQMTQSPSSLSASVGDRVTITCRASQGISSELNWYQQKPGKAPKLLIYDASSLESGVPSRFSGSGSGTDFTLTISSLQPEDFATYYCQHFNSFPWTFGQGTKLEIKR
B7: chimpanzee Fab 1A10 (Fab, V domains shown)
VH: VQLLEESGAEVKKPGSSVKVSCKVSGGTFSRNPISWVRQAPGQGLEWMGVIVPIVGTTKHAQKFQGRVTIIADESTSTAYMELSSLRSEDTAVYYCATYYADGSSYSEYWGQGTLVTVSS
VL: ELQMTQSPLSLSVAPGQPASISCKSSQSLLHSDGNTYLFWYLQKSGQSPQLLIYGLSNRASGVPDRFSGSGSGTDFTLKISQVEAEDVGVFYCMQGTQLPYTFGQGTKLEIKR
B8: chimpanzee Fab 3E4 (Fab, V domains shown)
VH: VQLLEQSGAEVKKPGGSVKVSCKVSGGTFSRNPISWVRQAPGQGLEWMSVIVPIVGTTKHAQKFQGRVTITADESTSTAYMELSSLRSEDTAVYYCATYRRYADVSSYSEYWGQGTLVTVSS
VL: ELTQSPLSLPVTLGQPASISCRSSQNLVHSDGNTYLSWIQQRPGQPPRLLIYKVSNRDSGVPDRFSGSGAGTDFTLKITRVEAEDVGLYYCVQGVQFPITFGQGTKLEIKR

Legend:
[1] = target: T2, dengue type 4 virus (DENV-4), strain 814669, virions (dengue type 4 virus, UniProt P09866 280-774; P09866 114-279); assay: cell-based or functional assay
[2] = target: T3, dengue type 1 virus (DENV-1), Western Pacific strain, virions (dengue type 1 virus, UniProt P17763 281-775; P17763 115-280); assay: ELISA, virion-coated plate, Fab from ~300 µg/ml
[3] = target: T4, dengue type 2 virus (DENV-2), prototype New Guinea C strain, virions (dengue type 2 virus, UniProt P14340 281-775; P14340 115-280); assay: ELISA, virion-coated plate, Fab from ~300 µg/ml
[4] = target: T5, dengue type 3 virus (DENV-3), strain H87, virions (dengue type 3 virus, UniProt P27915 281-773; P27915 115-280); assay: ELISA, virion-coated plate, Fab from ~300 µg/ml
[5] = target: T2, dengue type 4 virus (DENV-4), strain …; assay: ELISA, virion-coated plate, Fab from ~300 µg/ml
DENV-4 E glycoprotein = target: T6, DENV-4 E glycoprotein (dengue type 4 virus, UniProt P09866 280-774); assay: radioimmunoprecipitation of E expressed alone by recombinant vaccinia virus
T6 construct: also called vDENV-4 E product

DENV-4 prM glycoprotein = DENV-4 prM glycoprotein (dengue type 4 virus, UniProt P09866 114-279); assay: radioimmunoprecipitation of prM expressed alone by recombinant vaccinia virus
[6] = target: T3, dengue type 1 virus (DENV-1), Western …; assay: cell-based or functional assay
[7] = target: T4, dengue type 2 virus (DENV-2), prototype …; assay: cell-based or functional assay
[8] = target: T5, dengue type 3 virus (DENV-3), strain …; assay: cell-based or functional assay
[9] = target: T2, dengue type 4 virus (DENV-4), strain …; assay: cell-based or functional assay; remark: listed apart in the source
[10] = target: T3, dengue type 1 virus (DENV-1), Western …; assay: ELISA, virion-coated plate, Fab from ~140 µg/ml
[11] = target: T4, dengue type 2 virus (DENV-2), prototype …; assay: ELISA, virion-coated plate, Fab from ~140 µg/ml
[12] = target: T5, dengue type 3 virus (DENV-3), strain …; assay: ELISA, virion-coated plate, Fab from ~140 µg/ml
[13] = target: T2, dengue type 4 virus (DENV-4), strain …; assay: ELISA, virion-coated plate, Fab from ~140 µg/ml
[14] = target: T3, dengue type 1 virus (DENV-1), Western …
[15] = target: T4, dengue type 2 virus (DENV-2), prototype …
[16] = target: T5, dengue type 3 virus (DENV-3), strain …
[17] = target: T2, dengue type 4 virus (DENV-4), strain …
[18] = target: T5, dengue type 3 virus (DENV-3), strain …; assay: cell-based or functional assay; remark: listed apart in the source
[19] = target: T2, dengue type 4 virus (DENV-4), strain …; assay: cell-based or functional assay; remark: listed apart in the source
DENV-1 strain Hawaii = DENV-1 strain Hawaii (dengue type 1 virus); assay: cell-based or functional assay
[20] = target: DENV-2 New Guinea B (NGB) parent virus (dengue type 2 virus); assay: cell-based or functional assay
WNV/DENV-4 chimera = WNV/DENV-4 chimera (West Nile virus); assay: cell-based or functional assay
[21] = target: Japanese encephalitis virus (JEV) vaccine strain SA14-14-2 (Japanese encephalitis virus); assay: cell-based or functional assay
[22] = target: T1, Langat virus (LGTV) strain TP 21; assay: cell-based or functional assay

| Binder | PRNT50 titer [1] [µg/mL] | ELISA titer of Fab binding [2] | ELISA titer of Fab binding [3] | ELISA titer of Fab binding [4] | ELISA titer of Fab binding [5] | PRNT50 titer [6] [µg/mL] | PRNT50 titer [7] [µg/mL] | PRNT50 titer [8] [µg/mL] | PRNT50 titer [9] [µg/mL] | ELISA titer of Fab binding [10] | ELISA titer of Fab binding [11] | ELISA titer of Fab binding [12] | ELISA titer of Fab binding [13] | further results |
| --- | --- | --- | --- | --- | --- | --- | --- | --- | --- | --- | --- | --- | --- | --- |
| B1 | > 200 | 1.3 log10 of reciprocal dilution | 3.11 log10 of reciprocal dilution | 1.3 log10 of reciprocal dilution | 3.71 log10 of reciprocal dilution |  |  |  |  |  |  |  |  | binding result (DENV-4 E glycoprotein): no binding |
| B2 | 121 | 4.01 log10 of reciprocal dilution | 4.01 log10 of reciprocal dilution | 4.01 log10 of reciprocal dilution | 4.01 log10 of reciprocal dilution |  |  |  |  |  |  |  |  | binding result (DENV-4 prM glycoprotein): no binding |
| B3 |  |  |  |  |  | 0.26 | 0.33 | 5.92 | 7.26 | 4.1 log10 of reciprocal dilution | 3.8 log10 of reciprocal dilution | 3.6 log10 of reciprocal dilution | 3.8 log10 of reciprocal dilution |  |
| B4 |  |  |  |  |  |  |  |  |  |  |  |  |  | Kd [14]: 0.5 nM; Kd [15]: 0.6 nM; Kd [16]: 0.67 nM; Kd [17]: 0.82 nM; PRNT50 titer [18]: 3.2 µg/mL; PRNT50 titer [19]: 4.3 µg/mL; PRNT50 titer (DENV-1 strain Hawaii): 0.48 µg/mL; PRNT50 titer [20]: 0.95 µg/mL; PRNT50 titer (WNV/DENV-4 chimera): ~3.8 µg/mL; PRNT50 titer [21]: 21 µg/mL; PRNT50 titer [22]: 28 µg/mL |
| B5 |  |  |  |  |  | 0.37 | 1.33 | 2.99 | 4.71 | 4.1 log10 of reciprocal dilution | 3.8 log10 of reciprocal dilution | 3.8 log10 of reciprocal dilution | 3.8 log10 of reciprocal dilution |  |
| B6 |  |  |  |  |  | 0.5 | 3.13 | > 100 | 29.2 | 3.9 log10 of reciprocal dilution | 3.8 log10 of reciprocal dilution | 3.8 log10 of reciprocal dilution | 3.8 log10 of reciprocal dilution |  |
| B7 |  |  |  |  |  | 0.94 | 5.26 | 26.3 | 12.6 | 4.1 log10 of reciprocal dilution | 3.8 log10 of reciprocal dilution | 3.6 log10 of reciprocal dilution | 3.8 log10 of reciprocal dilution |  |
| B8 | 91 | 4.61 log10 of reciprocal dilution | 4.31 log10 of reciprocal dilution | 4.61 log10 of reciprocal dilution | 4.61 log10 of reciprocal dilution | 42.7 | > 100 | > 100 | 40.5 | 4 log10 of reciprocal dilution | 3.8 log10 of reciprocal dilution | 3.6 log10 of reciprocal dilution | 3.8 log10 of reciprocal dilution | binding result (DENV-4 prM glycoprotein): no binding |
